Source: patent US20160355591A1

Key:
[1] = molecular target: CD74 on human cells (human) (UniProt P04233); assay: indirect flow cytometry, Daudi cells, FITC-GAH Fc 2nd Ab; none 3.2
[2] = molecular target: CD74 on human cells (human) (UniProt P04233); assay: indirect FACS, Raji cells, FITC-GAH Fc 2nd Ab; none 6.8
[3] = molecular target: CD74 on human cells (human) (UniProt P04233); assay: indirect flow cytometry, Namalwa cells, FITC-GAH Fc 2nd Ab; none 2.6
[4] = molecular target: CD74 on human cells (human) (UniProt P04233); assay: indirect flow cytometry, Ramos cells, FITC-GAH Fc 2nd Ab; none 3.1
[5] = molecular target: CD74 on human cells (human) (UniProt P04233); assay: indirect FACS, WSU-FSCCL cells, FITC-GAH Fc 2nd Ab; none 2.6
[6] = molecular target: CD74 on human cells (human) (UniProt P04233); assay: indirect FACS, Ramos cells, FITC-GAH Fc 2nd Ab; none 3.1
[7] = molecular target: CD74 on human cells (human) (UniProt P04233); assay: indirect flow cytometry, WSU-FSCCL cells, FITC-GAH Fc 2nd Ab; none 2.7
[8] = molecular target: CD74 on dog lymphocytes and dog lymphoma cells (dog); assay: flow cytometry, canine lymphoma aspirate 150836; none 3.2
[9] = molecular target: CD74 on dog lymphocytes and dog lymphoma cells (dog); assay: flow cytometry, canine lymphoma aspirate 150836; none 4.5
[10] = molecular target: CD74 on dog lymphocytes and dog lymphoma cells (dog); assay: flow cytometry, dog lymphoma aspirate; none 4.48
[11] = molecular target: CD74 on human cells (human) (UniProt P04233); assay: indirect FACS, SU-DHL-6 cells, FITC-GAH Fc 2nd Ab; none 4.6
[12] = molecular target: CD74 on human cells (human) (UniProt P04233); assay: indirect FACS, Daudi cells, FITC-GAH Fc 2nd Ab; none 3.1
[13] = molecular target: CD74 on dog lymphocytes and dog lymphoma cells (dog); assay: flow cytometry, dog lymphoma aspirate; none 3.24
[14] = molecular target: CD74 on human cells (human) (UniProt P04233); assay: indirect FACS, Namalwa cells, FITC-GAH Fc 2nd Ab; none 2.5
[15] = molecular target: CD74 on human cells (human) (UniProt P04233); assay: indirect flow cytometry, RL cells, FITC-GAH Fc 2nd Ab; none 2.4
[16] = molecular target: CD74 on human cells (human) (UniProt P04233); assay: indirect flow cytometry, Namalwa cells, FITC-GAH 2nd Ab; none 2.52
[17] = molecular target: CD74 on human cells (human) (UniProt P04233); assay: indirect flow cytometry, SU-DHL-6 cells, FITC-GAH Fc 2nd Ab; none 4.6
[18] = molecular target: CD74 on human cells (human) (UniProt P04233); assay: indirect flow cytometry, Raji cells, FITC-GAH Fc 2nd Ab; none 6.9

Chain of CD74 on human cells (human) (P04233 whole entry): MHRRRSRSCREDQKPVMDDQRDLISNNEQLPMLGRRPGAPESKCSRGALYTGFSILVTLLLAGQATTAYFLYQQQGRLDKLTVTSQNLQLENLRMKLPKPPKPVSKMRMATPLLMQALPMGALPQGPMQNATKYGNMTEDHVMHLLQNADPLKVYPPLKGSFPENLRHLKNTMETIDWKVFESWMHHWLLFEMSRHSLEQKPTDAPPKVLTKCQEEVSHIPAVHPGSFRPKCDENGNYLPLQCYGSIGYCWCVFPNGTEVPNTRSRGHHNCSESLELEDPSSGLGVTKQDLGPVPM

hLL1 (milatuzumab, humanized anti-CD74) (antibody)
geometric mean fluorescence [1]: 48.8
geometric mean fluorescence [2]: 95.1
geometric mean fluorescence [3]: 7.8
geometric mean fluorescence [4]: 23.3
geometric mean fluorescence [5]: 8.66
geometric mean fluorescence [6]: 23.2
geometric mean fluorescence [7]: 8.7
mean FL [8]: 3.3
% Positive [9]: 4.7%
% Positive [10]: 4.71%
geometric mean fluorescence [11]: 17.3
geometric mean fluorescence [12]: 48.8
mean FL [13]: 3.33
geometric mean fluorescence [14]: 7.81
geometric mean fluorescence [15]: 7.9
geometric mean fluorescence [16]: 10.1
geometric mean fluorescence [17]: 17.3
geometric mean fluorescence [18]: 95.1
